In test [1] the target is synthetic Aβ1-42 peptide (aggregated in the ELISAs) (human) (UniProt P05067). The experiment in a line: ELISA on aggregated synthetic Aβ1-42; given as ED50.
Test [2] has as its target soluble [125I]Aβ1-42 (synthetic Aβ1-42 sonicated in DMSO, radio-iodinated) (human) (UniProt P05067). Kind of test: capture radioimmunoassay, 50,000 CPM of 125I-Aβ1-42 (or 125I-Aβ1-40), antibody at 10 µg/ml.

pEC50: −log10 of the molar value.

As for antibody 10D5 (IgG1), the pEC50 in test [1] is 10.28. For the same substance, the % of radioactive counts bound at 10 µg/ml in test [2] stood at 2%.
Substance antibody 12B4 (IgG2a) gave a pEC50 in test [1] of 9.18. Further, the % of radioactive counts bound at 10 µg/ml in test [2] was determined as 7%.

Usually pEC50 stands for −log10 of the EC50, conventionally taken in molar units. High values mean a low EC50, low ones a high EC50.

For the origin of these results see patent publication US20050118651A1.
